# Numbering of substitutions follows the chain as printed. Names may count otherwise.
# T1: recombinant FAP protein (BioLegend), biotinylated (Homo sapiens (Human), UniProt Q12884 26-760, Biotinylated (sites not given) for loading on streptavidin sensors. Any vendor tag is not stated in the passages shown.)
# T1 construct: Loaded on streptavidin sensors for BLI; also called biotinylated FAP
# T1 sequence: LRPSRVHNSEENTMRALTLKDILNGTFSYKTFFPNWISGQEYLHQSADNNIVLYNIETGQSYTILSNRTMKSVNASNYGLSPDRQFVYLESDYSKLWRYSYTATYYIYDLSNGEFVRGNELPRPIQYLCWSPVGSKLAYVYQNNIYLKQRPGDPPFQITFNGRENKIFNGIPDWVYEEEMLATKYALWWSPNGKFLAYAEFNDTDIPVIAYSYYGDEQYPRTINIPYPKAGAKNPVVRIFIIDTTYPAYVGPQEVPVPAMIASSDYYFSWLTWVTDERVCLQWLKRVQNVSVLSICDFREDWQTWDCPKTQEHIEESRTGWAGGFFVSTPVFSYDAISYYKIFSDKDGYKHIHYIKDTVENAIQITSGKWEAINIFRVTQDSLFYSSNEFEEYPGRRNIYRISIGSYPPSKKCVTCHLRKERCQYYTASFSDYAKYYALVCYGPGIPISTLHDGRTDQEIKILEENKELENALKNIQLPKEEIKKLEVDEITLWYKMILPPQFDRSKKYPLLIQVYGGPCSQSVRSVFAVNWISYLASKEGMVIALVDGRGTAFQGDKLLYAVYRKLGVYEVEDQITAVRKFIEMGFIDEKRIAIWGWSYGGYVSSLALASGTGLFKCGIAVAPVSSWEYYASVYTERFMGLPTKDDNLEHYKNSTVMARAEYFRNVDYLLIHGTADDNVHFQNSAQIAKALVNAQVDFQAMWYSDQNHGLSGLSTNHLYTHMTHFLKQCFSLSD
# T2: mouse FAP on transiently transfected HEK293T cells (pMET7 FLAG-mFAP) (mouse, UniProt P97321 1-761)
# T2 construct: whole, on cells; not shown: FLAG tag of the plasmid pMET7 FLAG-mFAP
# T2 sequence (looked up): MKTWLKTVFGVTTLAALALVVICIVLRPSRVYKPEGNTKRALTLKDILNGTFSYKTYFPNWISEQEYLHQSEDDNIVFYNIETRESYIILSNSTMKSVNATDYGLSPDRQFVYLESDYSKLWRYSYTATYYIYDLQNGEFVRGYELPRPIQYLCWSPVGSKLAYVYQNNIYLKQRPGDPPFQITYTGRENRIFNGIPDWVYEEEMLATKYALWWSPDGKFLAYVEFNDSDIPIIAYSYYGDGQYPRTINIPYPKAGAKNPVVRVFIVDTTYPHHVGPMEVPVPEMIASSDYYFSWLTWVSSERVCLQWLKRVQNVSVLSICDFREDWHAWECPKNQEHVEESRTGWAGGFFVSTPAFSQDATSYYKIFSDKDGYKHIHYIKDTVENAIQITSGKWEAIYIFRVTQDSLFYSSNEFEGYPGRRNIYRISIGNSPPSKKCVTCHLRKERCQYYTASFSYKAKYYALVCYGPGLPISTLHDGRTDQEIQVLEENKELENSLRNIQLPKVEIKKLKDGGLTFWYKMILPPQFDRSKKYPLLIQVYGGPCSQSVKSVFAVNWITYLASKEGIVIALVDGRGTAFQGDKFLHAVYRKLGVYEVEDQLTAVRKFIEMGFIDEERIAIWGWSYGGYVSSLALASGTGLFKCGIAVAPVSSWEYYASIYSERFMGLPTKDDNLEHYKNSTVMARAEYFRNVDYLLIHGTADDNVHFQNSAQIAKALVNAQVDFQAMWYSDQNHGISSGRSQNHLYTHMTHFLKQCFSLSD
# B1: P-1901: 2PE14 (VHH)
# VHH: QVQLQESGGGLVQPGGSLRLSCAASGSTFSINAVAWYRQAPGKRRELVAGISGGGVTNYPDSVKGRFTISRDNAKNTVYLQMSSLKPEDTAVYYCNLWPPRASPGGRVYWGQGTQVTVSS
# notes: also called pET28 PelB-2PE14
# B2: P-1912: 2PE14_N32I (VHH)
# VHH: B1 VHH with N32I
# notes: also called pET28 PelB-2PE14_N32I
# B3: P-1917: 2PE14_N32R (VHH)
# VHH: B1 VHH with N32R
# notes: also called pET28 PelB-2PE14_N32R
# B4: P-1916: 2PE14_N32Q (VHH)
# VHH: B1 VHH with N32Q
# notes: also called pET28 PelB-2PE14_N32Q
# B5: P-1941: 3PE42_M31Y (VHH)
# VHH: B1 VHH with G16E, A24V, F29S, I31Y, V34M, V56A, R107G
# notes: also called pET28 PelB-3PE42_M42Y
# B6: P-1906: 2PE14_N32A (VHH)
# VHH: B1 VHH with N32A
# notes: also called pET28 PelB-2PE14_N32A
# B7: P-1932: 3PE42_M31L (VHH)
# VHH: B1 VHH with G16E, A24V, F29S, I31L, V34M, V56A, R107G
# notes: also called pET28 PelB-3PE42_M42L
# B8: P-1939: 3PE42_M31V (VHH)
# VHH: B1 VHH with G16E, A24V, F29S, I31V, V34M, V56A, R107G
# notes: also called pET28 PelB-3PE42_M42V
# B9: P-1910: 2PE14_N32G (VHH)
# VHH: B1 VHH with N32G
# notes: also called pET28 PelB-2PE14_N32G
# B10: P-1903: 2PE14_opt2 (Q1D_Q5V_P60A_A74S_K83R_Q108L) (VHH)
# VHH: B1 VHH with Q1D, Q5V, P60A, A74S, K86R, Q115L
# notes: also called pET28 PelB-2PE14_opt2 (idem + P60A)
# B11: P-1907: 2PE14_N32D (VHH)
# VHH: B1 VHH with N32D
# notes: also called pET28 PelB-2PE14_N32D
# B12: P-1911: 2PE14_N32H (VHH)
# VHH: B1 VHH with N32H
# notes: also called pET28 PelB-2PE14_N32H
# B13: P-1921: 2PE14_N32W (VHH)
# VHH: B1 VHH with N32W
# notes: also called pET28 PelB-2PE14_N32W
# B14: P-1938: 3PE42_M31T (VHH)
# VHH: B1 VHH with G16E, A24V, F29S, I31T, V34M, V56A, R107G
# notes: also called pET28 PelB-3PE42_M42T
# B15: P-1913: 2PE14_N32K (VHH)
# VHH: B1 VHH with N32K
# notes: also called pET28 PelB-2PE14_N32K
# B16: P-1933: 3PE42_M31N (VHH)
# VHH: B1 VHH with G16E, A24V, F29S, I31N, V34M, V56A, R107G
# notes: also called pET28 PelB-3PE42_M42N
# B17: P-1926: 3PE42_M31E (VHH)
# VHH: B1 VHH with G16E, A24V, F29S, I31E, V34M, V56A, R107G
# notes: also called pET28 PelB-3PE42_M42E
# B18: P-1914: 2PE14_N32L (VHH)
# VHH: B1 VHH with N32L
# notes: also called pET28 PelB-2PE14_N32L
# B19: P-1937: 3PE42_M31S (VHH)
# VHH: B1 VHH with G16E, A24V, F29S, I31S, V34M, V56A, R107G
# notes: also called pET28 PelB-3PE42_M42S
# B20: P-1940: 3PE42_M31W (VHH)
# VHH: B1 VHH with G16E, A24V, F29S, I31W, V34M, V56A, R107G
# notes: also called pET28 PelB-3PE42_M42W
# B21: P-1935: 3PE42_M31Q (VHH)
# VHH: B1 VHH with G16E, A24V, F29S, I31Q, V34M, V56A, R107G
# notes: also called pET28 PelB-3PE42_M42Q
# B22: P-1919: 2PE14_N32T (VHH)
# VHH: B1 VHH with N32T
# notes: also called pET28 PelB-2PE14_N32T
# B23: P-1927: 3PE42_M31F (VHH)
# VHH: B1 VHH with G16E, A24V, F29S, I31F, V34M, V56A, R107G
# notes: also called pET28 PelB-3PE42_M42F
# B24: P-1931: 3PE42_M31K (VHH)
# VHH: B1 VHH with G16E, A24V, F29S, I31K, V34M, V56A, R107G
# notes: also called pET28 PelB-3PE42_M42K
# B25: P-1909: 2PE14_N32F (VHH)
# VHH: B1 VHH with N32F
# notes: also called pET28 PelB-2PE14_N32F
# B26: P-1905: 2PE14_opt4 (Q1D_Q5V_P60A_A74S_S82N_K83R_Q108L) (VHH)
# VHH: B1 VHH with Q1D, Q5V, P60A, A74S, S83N, K86R, Q115L
# B27: P-1930: 3PE42_M31I (VHH)
# VHH: B1 VHH with G16E, A24V, F29S, V34M, V56A, R107G
# notes: also called pET28 PelB-3PE42_M42I
# B28: P-1925: 3PE42_M31D (VHH)
# VHH: B1 VHH with G16E, A24V, F29S, I31D, V34M, V56A, R107G
# notes: also called pET28 PelB-3PE42_M42D
# B29: P-1934: 3PE42_M31P (VHH)
# VHH: B1 VHH with G16E, A24V, F29S, I31P, V34M, V56A, R107G
# notes: also called pET28 PelB-3PE42_M42P
# B30: P-1918: 2PE14_N32S (VHH)
# VHH: B1 VHH with N32S
# notes: also called pET28 PelB-2PE14_N32S
# B31: P-1936: 3PE42_M31R (VHH)
# VHH: B1 VHH with G16E, A24V, F29S, I31R, V34M, V56A, R107G
# notes: also called pET28 PelB-3PE42_M42R
# B32: P-1923: 3PE42 (VHH)
# VHH: B1 VHH with G16E, A24V, F29S, I31M, V34M, V56A, R107G
# notes: also called pET28 PelB-3PE42
# B33: P-1902: 2PE14_opt1 (Q1D_Q5V_A74S_K83R_Q108L) (VHH)
# VHH: B1 VHH with Q1D, Q5V, A74S, K86R, Q115L
# notes: also called pET28 PelB-2PE14_opt1
# B34: P-1924: 3PE42_M31A (VHH)
# VHH: B1 VHH with G16E, A24V, F29S, I31A, V34M, V56A, R107G
# notes: also called pET28 PelB-3PE42_M42A
# B35: P-1929: 3PE42_M31H (VHH)
# VHH: B1 VHH with G16E, A24V, F29S, I31H, V34M, V56A, R107G
# notes: also called pET28 PelB-3PE42_M42H
# B36: P-1904: 2PE14_opt3 (Q1D_Q5V_A74S_S82N_K83R_Q108L) (VHH)
# VHH: B1 VHH with Q1D, Q5V, A74S, S83N, K86R, Q115L
# notes: also called pET28 PelB-2PE14_opt3 (idem + S82N)
# B37: P-1920: 2PE14_N32V (VHH)
# VHH: B1 VHH with N32V
# notes: also called pET28 PelB-2PE14_N32V
# B38: P-1922: 2PE14_N32Y (VHH)
# VHH: B1 VHH with N32Y
# notes: also called pET28 PelB-2PE14_N32Y
# B39: P-1915: 2PE14_N32P (VHH)
# VHH: B1 VHH with N32P
# notes: also called pET28 PelB-2PE14_N32P
# B40: P-1908: 2PE14_N32E (VHH)
# VHH: B1 VHH with N32E
# notes: also called pET28 PelB-2PE14_N32E
# B41: P-1928: 3PE42_M31G (VHH)
# VHH: B1 VHH with G16E, A24V, F29S, I31G, V34M, V56A, R107G
# notes: also called pET28 PelB-3PE42_M42G
# B42: 2PE14 (VHH)
# VHH: B1 VHH
# B43: 2PE36 (VHH)
# VHH: B1 VHH with G105D
# B44: 2PE42 (VHH)
# VHH: B1 VHH with P14A, K64R, G105D
# B45: 2PE17 (VHH)
# VHH: B1 VHH with P14S
# B46: 2PE40 (VHH)
# VHH: B1 VHH with G26E, T77I
# B47: 2PE44 (VHH)
# VHH: B1 VHH with I31V, K86I
# Target: T1, recombinant FAP protein (BioLegend), …
# Test: BLI (Octet RED96), biotinylated FAP on streptavidin sensors
row,Binder,Kd
1,B1,0.667 nM
2,B2,16.8 nM
3,B3,0.317 nM
4,B4,0.386 nM
5,B5,1.12 nM
6,B6,3.56 nM
7,B7,0.872 nM
8,B8,2.45 nM
9,B9,4.62 nM
10,B10,2.26 nM
11,B11,10.8 nM
12,B12,3.69 nM
13,B13,0.221 nM
14,B14,1.16 nM
15,B15,2.67 nM
16,B16,0.567 nM
17,B17,1.85 nM
18,B18,1.25 nM
19,B19,0.613 nM
20,B20,0.0945 nM
21,B21,0.214 nM

row,Binder,Kd
1,B22,4.11 nM
2,B23,1.17 nM
3,B24,0.851 nM
4,B25,0.468 nM
5,B26,3.76 nM
6,B27,2.87 nM
7,B28,0.165 nM
8,B29,1.34 nM
9,B30,556 nM
10,B31,0.0276 nM
11,B32,0.588 nM
12,B33,0.0951 nM
13,B34,0.0889 nM
14,B35,1.12 nM
15,B36,0.653 nM
16,B37,100 nM
17,B38,14.5 nM
18,B39,1.17 nM
19,B40,1.09 nM
20,B41,4.02 nM

# Target: T2, mouse FAP on transiently transfected …
# Test: FACS, serial dilution of purified VHH on transfected HEK293T cells
row,Binder,binding result
1,B42,binds
2,B43,binds
3,B44,binds
4,B45,binds
5,B46,binds
6,B47,binds

# Source: patent US20220332844A1 (ORIONIS BIOSCIENCES, published 2022)
